Measured values reported in publication PMC2518108.

Legend:
human IGF-II (human) = experiment: SPR; BIAcore T100, CM5 chip; human IGF-I (120 RU) or IGF-II (138 RU) amine-coupled; IGFBP-1s injected 60 s, 5 min dissociation; 25 C, HBS (10 mM HEPES, 150 mM NaCl, 3 uM EDTA, 0.05% TWEEN-20, pH 7.4), 30 uL/min; 1:1 model fitted globally, KD = kd/ka
human IGF-I (human) = human IGF-I (human) (UniProt P05019); experiment: as above
Sequence of human IGF-I (human) (P05019 49-118): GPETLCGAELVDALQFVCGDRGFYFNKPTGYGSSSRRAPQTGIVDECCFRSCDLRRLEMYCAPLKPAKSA

Sequence of human IGFBP-1 (P08833 26-259): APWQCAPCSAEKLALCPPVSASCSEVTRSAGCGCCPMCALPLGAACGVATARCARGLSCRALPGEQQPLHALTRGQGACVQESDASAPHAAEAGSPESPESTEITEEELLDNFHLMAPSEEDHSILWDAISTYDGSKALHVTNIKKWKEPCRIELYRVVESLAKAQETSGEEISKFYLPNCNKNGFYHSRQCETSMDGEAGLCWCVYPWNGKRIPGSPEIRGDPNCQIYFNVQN

## human IGFBP-1 (from UniProt P08833 26-259) (natural protein)
Human IGF-II (human)
  Kd: 8.63 nM
  koff: 0.000457 s⁻¹
  kon: 53000 M⁻¹ s⁻¹

## zebrafish IGFBP-1a (natural protein)
Human IGF-I (human)
  Kd: 0.28 nM
  koff: 0.000332 s⁻¹
  kon: 1.18e+06 M⁻¹ s⁻¹
Human IGF-II (human)
  Kd: 0.34 nM
  koff: 0.00029 s⁻¹
  kon: 867000 M⁻¹ s⁻¹

## zebrafish IGFBP-1b (from UniProt A4K8J2 1-244) (natural protein)
Human IGF-II (human)
  Kd: 9.33 nM
  koff: 0.00926 s⁻¹
  kon: 993000 M⁻¹ s⁻¹
